Data on 6 molecules can be found in article PMC10055539 (Research Square, 2023).

The chains are these.
B2: Thermoplasma acidophilum 20S proteasome α subunit, wild type (natural protein, T. acidophilum)
chain: MQQGQMAYDRAITVFSPDGRLFQVEYAREAVKKGSTALGMKFANGVLLISDKKVRSRLIEQNSIEKIQLIDDYVAAVTSGLVADARVLVDFARISAQQEKVTYGSLVNIENLVKRVADQMQQYTQYGGVRPYGVSLIFAGIDQIGPRLFDCDPAGTINEYKATAIGSGKDAVVSFLEREYKENLPEKEAVTLGIKALKSSLEEGEELKAPEIASITVGNKYRIYDQEEVKKFL
notes: proteasome subunit alpha of the Thermoplasma acidophilum 20S proteasome; Single subunit of m1, written for the subunit-subunit rows of the structures; also called T20S α subunit; source: part of the purified T20S (purified as described [42], via 8XHis tags on the C-terminus of β subunit)
B3: Thermoplasma acidophilum 20S proteasome α subunit with the L81Y mutation (natural protein, T. acidophilum)
chain: MQQGQMAYDRAITVFSPDGRLFQVEYAREAVKKGSTALGMKFANGVLLISDKKVRSRLIEQNSIEKIQLIDDYVAAVTSGYVADARVLVDFARISAQQEKVTYGSLVNIENLVKRVADQMQQYTQYGGVRPYGVSLIFAGIDQIGPRLFDCDPAGTINEYKATAIGSGKDAVVSFLEREYKENLPEKEAVTLGIKALKSSLEEGEELKAPEIASITVGNKYRIYDQEEVKKFL
notes: proteasome subunit alpha of the Thermoplasma acidophilum 20S proteasome, L81Y; Subunit of the T20S-αL81Y proteasome whose cryo-EM structure is solved here; also called T20S-αL81Y α subunit; source: part of the purified T20S-αL81Y (overlapping PCR site-directed mutagenesis; purified via 8XHis tags on the C-terminus of β subunit)

Series [1] concerns the target Thermoplasma acidophilum wild type 20S proteasome (T. acidophilum) (UniProt P25156).
Series [2] addresses B3. As to the kind of experiment: cryo-EM structure; 0.5 mg/mL T20S-αL81Y in 50mM Tris pH 7.4, 150mM NaCl; Titan Krios; homogeneous refinement with D7 symmetry; partially open gate. The note with it: both partners purified.
Series [3] concerns the molecule itself. The description is as above.
The target of series [4] is B2. As to the kind of experiment: cryo-EM structure; 0.5 mg/mL WT T20S in 50mM Tris pH 7.4, 150mM NaCl; Titan Krios; homogeneous refinement with D7 symmetry; closed gate. The note with it: both partners purified.
Series [5] deals with the molecule itself. The description is as above.
Series [6] addresses Thermoplasma acidophilum wild type 20S proteasome (T. acidophilum) (UniProt P25156). The source holds these as a separate data set.
The target in series [7] is Mammalian 20S proteasome isolated from bovine liver (bovine (isolated from bovine liver), UniProt Q2YDE4 1-246; Q3T0Y5 1-234; Q3ZCK9 1-261; Q3ZBG0 1-248; Q5E987 1-241; Q3T0X5 …). As to the kind of experiment: cell-based or functional assay.

Ends that are not written are not given here. * marks the point of attachment. Cbz = O=C(OCc1ccccc1)* Bounds are passed on as bounds.

“N-acetylated PAN C-terminus peptide, three residues (Ac-LYR)” came in with an LFP hydrolysis (rfu/min) by 7nM WT T20S with N-terminally acetylated peptide (200 μM), relative to DMSO; gate opening in series [1] of 2 fold. For the molecule Ac-LDVLYR [N-acetylated PAN C-terminus peptide, six residues], the LFP hydrolysis (rfu/min) by 7nM WT T20S with N-terminally acetylated peptide (200 μM), relative to DMSO; gate opening in series [1] is > 10 fold.

B1: Thermoplasma acidophilum 20S proteasome β subunit (natural protein, T. acidophilum, UniProt P28061 9-211, looked up)
chain: TTTVGITLKDAVIMATERRVTMENFIMHKNGKKLFQIDTYTGMTIAGLVGDAQVLVRYMKAELELYRLQRRVNMPIEAVATLLSNMLNQVKYMPYMVQLLVGGIDTAPHVFSIDAAGGSVEDIYASTGSGSPFVYGVLESQYSEKMTVDEGVDLVIRAISAAKQRDSASGGMIDVAVITRKDGYVQLPTDQIESRIRKLGLIL
notes: proteasome subunit beta of the Thermoplasma acidophilum 20S proteasome; Single subunit of m1, written for the subunit-subunit rows of the structures; also called T20S β subunit; source: part of the purified T20S (purified as described [42], via 8XHis tags on the C-terminus of β subunit)
As to B1, the binding result in series [2], in series [3] and in series [4] was “binds” each time.

B2: the binding result in series [5] is on record as “binds”.

Take B3: the binding result in series [3] is recorded as “binds”. As for Cbz-Tyr-Ala [Z-Tyr-Ala (carboxybenzyl-tyrosine-alanine), HbYX-like dipeptide mimetic], in series [6], the LFP hydrolysis (rfu/min) by 7nM WT T20S with ZYA (2.5mM), normalized to DMSO; gate opening was 13 fold. Besides, the “nLPnLD-AMC hydrolysis by mammalian 20S (0.5 nM), dose response of ZYA, normalized to DMSO: activation at saturation” value in series [7] is ~50 fold.
